{"source": "patent US20040214995A1", "about": "(published 2004)", "binders": {"B1": {"name": "G9-154-1A (peptide)", "peptide": "ATWGQYWQV"}, "B2": {"name": "G9-154-1W (peptide)", "peptide": "WTWGQYWQV"}, "B3": {"name": "G9-154-3Y (peptide)", "peptide": "KTYGQYWQV"}, "B4": {"name": "G9-154-1L2L (peptide)", "peptide": "LLWGQYWQV"}, "B5": {"name": "G9-154-1F2L (peptide)", "peptide": "FLWGQYWQV"}, "B6": {"name": "G9-154-1Y (peptide)", "peptide": "YTWGQYWQV"}, "B7": {"name": "G9-154-1F (peptide)", "peptide": "FTWGQYWQV"}, "B8": {"name": "G9-154-1W2L (peptide)", "peptide": "WLWGQYWQV"}, "B9": {"name": "G9-154-2L (peptide)", "peptide": "KLWGQYWQV"}, "B10": {"name": "G9-154-1A2L (peptide)", "peptide": "ALWGQYWQV"}, "B11": {"name": "G9-154-1L (peptide)", "peptide": "LTWGQYWQV"}, "B12": {"name": "G9-154-3F (peptide)", "peptide": "KTFGQYWQV"}, "B13": {"name": "G9-154-1Y2L (peptide)", "peptide": "YLWGQYWQV"}, "B14": {"name": "G9-154-2M (peptide)", "peptide": "KMWGQYWQV"}, "B15": {"name": "G9-154-2I (peptide)", "peptide": "KIWGQYWQV"}, "B16": {"name": "gp100 peptide G10-4 (LLDGTATLRL) (peptide)", "peptide": "LLDGTATLRL"}, "B17": {"name": "gp100 peptide G10-5 (VLYRYGSFSV) (peptide)", "peptide": "VLYRYGSFSV"}}, "key": {"[1]": {"target": "T1, HLA-A2.1 (heavy chain with human beta 2-microglobulin) (human)"}, "[2]": {"target": "T1, HLA-A2.1 (heavy chain with human beta …)", "remark": "listed apart in the source"}}, "note": "Like-named read-outs stand apart in the source and are kept apart here.", "data": [{"binder": "B1", "values": [{"measurement": "IC50", "setting": "[1]", "result": 5.2, "unit": "nM"}]}, {"binder": "B2", "values": [{"measurement": "IC50", "setting": "[1]", "result": 60, "unit": "nM"}]}, {"binder": "B3", "values": [{"measurement": "IC50", "setting": "[1]", "result": 30, "unit": "nM"}]}, {"binder": "B4", "values": [{"measurement": "IC50", "setting": "[1]", "result": 1.6, "unit": "nM"}]}, {"binder": "B5", "values": [{"measurement": "IC50", "setting": "[1]", "result": 2.6, "unit": "nM"}]}, {"binder": "B6", "values": [{"measurement": "IC50", "setting": "[1]", "result": 2.5, "unit": "nM"}]}, {"binder": "B7", "values": [{"measurement": "IC50", "setting": "[1]", "result": 1.6, "unit": "nM"}]}, {"binder": "B8", "values": [{"measurement": "IC50", "setting": "[1]", "result": 2.8, "unit": "nM"}]}, {"binder": "B9", "values": [{"measurement": "IC50", "setting": "[1]", "result": 2, "unit": "nM"}]}, {"binder": "B10", "values": [{"measurement": "IC50", "setting": "[1]", "result": 2.3, "unit": "nM"}]}, {"binder": "B11", "values": [{"measurement": "IC50", "setting": "[1]", "result": 3.4, "unit": "nM"}]}, {"binder": "B12", "values": [{"measurement": "IC50", "setting": "[1]", "result": 21, "unit": "nM"}]}, {"binder": "B13", "values": [{"measurement": "IC50", "setting": "[1]", "result": 1.7, "unit": "nM"}]}, {"binder": "B14", "values": [{"measurement": "IC50", "setting": "[1]", "result": 6.5, "unit": "nM"}]}, {"binder": "B15", "values": [{"measurement": "IC50", "setting": "[1]", "result": 3, "unit": "nM"}]}, {"binder": "B16", "values": [{"measurement": "IC50", "setting": "[2]", "result": 483, "unit": "nM"}, {"measurement": "Ratio to Standard", "setting": "[2]", "result": 0.01}]}, {"binder": "B17", "values": [{"measurement": "IC50", "setting": "[2]", "result": 13, "unit": "nM"}, {"measurement": "Ratio to Standard", "setting": "[2]", "result": 0.38}]}]}
